Measured values taken from the supplement of paper PMC9233669.
This sample holds only a part of the variants without activity.

Tests used:
biotinyl-Leu-oxazolone = assay: self-aminoacylation, catalytic enhancement (BLO) (fold over background); higher = more active; k-Seq, kA / k0A0; sequences stand for … in GGGAAUGGAUCCACAUCUACGAAUUC…UUCACUGCAGACUUGACGAAGCUG
Method in brief: (§1)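 Catalytic enhancement equals the median kA over the uncatalyzed rate, the latter read from the low-activity peak of a bimodal Gaussian fit. Values of kA came from fitting each sequence's fraction reacted to a pseudo-first-order model, with 1000 bootstraps. Reacted RNA was captured with streptavidin and quantified by triplicate qPCR and Illumina sequencing after 90 minutes at room temperature with 2–1250 μM biotinyl-aminoacyl-oxazolone and 0.43 μM mutagenized RNA pools bearing a 21-nt variable region.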

biotinyl-Val-oxazolone = assay: self-aminoacylation, catalytic enhancement (BVO) (fold over background); higher = more active; k-Seq, kA / k0A0; sequences stand for … in GGGAAUGGAUCCACAUCUACGAAUUC…UUCACUGCAGACUUGACGAAGCUG
Method in brief: as §1

biotinyl-Ile-oxazolone = assay: self-aminoacylation, catalytic enhancement (BIO) (fold over background); higher = more active; k-Seq, kA / k0A0; sequences stand for … in GGGAAUGGAUCCACAUCUACGAAUUC…UUCACUGCAGACUUGACGAAGCUG
Method in brief: as §1

biotinyl-Phe-oxazolone = assay: self-aminoacylation, catalytic enhancement (BFO) (fold over background); higher = more active; k-Seq, kA / k0A0; sequences stand for … in GGGAAUGGAUCCACAUCUACGAAUUC…UUCACUGCAGACUUGACGAAGCUG
Method in brief: as §1

biotinyl-Trp-oxazolone = assay: self-aminoacylation, catalytic enhancement (BWO) (fold over background); higher = more active; k-Seq, kA / k0A0; sequences stand for … in GGGAAUGGAUCCACAUCUACGAAUUC…UUCACUGCAGACUUGACGAAGCUG
Method in brief: as §1

biotinyl-Met-oxazolone = assay: self-aminoacylation, catalytic enhancement (BMO) (fold over background); higher = more active; k-Seq, kA / k0A0; sequences stand for … in GGGAAUGGAUCCACAUCUACGAAUUC…UUCACUGCAGACUUGACGAAGCUG
Method in brief: as §1

| Sequence | self-aminoacylation (biotinyl-Leu-oxazolone) | self-aminoacylation (biotinyl-Val-oxazolone) | self-aminoacylation (biotinyl-Ile-oxazolone) | self-aminoacylation (biotinyl-Phe-oxazolone) | self-aminoacylation (biotinyl-Trp-oxazolone) | self-aminoacylation (biotinyl-Met-oxazolone) |
| --- | --- | --- | --- | --- | --- | --- |
| AUAACCCUGAUCAUCGAGUGA [Fam2.1 aminoacylation ribozyme variant] | 6.46 | 3.27 | 2.79 | 20.9 | 8.47 | 6.16 |
| CCACACUGCAAGGAAUCGGUC [Fam1B.1 aminoacylation ribozyme variant] | 1.3 | 1.32 | 1.39 | 3.84 | 1.51 | 1.35 |
| AUGCUUGCUAAUAGUCGCAAG [Fam3.1 aminoacylation ribozyme variant] | 1.33 | 1.32 | 1.81 | 3.19 | 1.99 | 1.61 |
| CCACACUUCAAGACAUCGGUC [Fam1B.1 aminoacylation ribozyme variant] | 0.879 | 0.896 | 1 | 0.815 | 0.762 | 0.914 |
| AUUCCCCUGGUGAUCGAGUGA [Fam2.1 aminoacylation ribozyme variant] | 5.91 | 3.13 | 3.12 | 36.9 | 6.06 | 5.51 |
| AUCGCCCUGGUCAUCGAGUGA [Fam2.1 aminoacylation ribozyme variant] | 16 | 7.32 | 7.09 | 98.5 | 17.8 | 16.5 |
| AGGUUUGCUAAUAGUCGCAAG [Fam3.1 aminoacylation ribozyme variant] | 1.41 | 1.38 | 1.56 | 22 | 6.61 | 1.75 |
| AAGUCCGCUAAUAGUCGCAAG [Fam3.1 aminoacylation ribozyme variant] | 2.02 | 2.09 | 2.43 | 46.3 | 10.7 | 2.99 |
| CCAUACUUCAAGCAAUCGAUC [Fam1B.1 aminoacylation ribozyme variant] | 0.489 | 0.842 | 0.666 | 1.01 | 0.638 | 0.45 |
| AUUAACCUAGGUCAUCGGCUG [Fam2.2 aminoacylation ribozyme variant] | 1.35 | 1.59 | 1.35 | 4.37 | 1.57 | 1.49 |
| AAGUUUGCUAAUAAACGCAAG [Fam3.1 aminoacylation ribozyme variant] | 0.687 | 0.667 | 0.774 | 1.12 | 0.97 | 0.833 |
| AUUCACCUAGCUCACCGGGUG [Fam2.2 aminoacylation ribozyme variant] | 2.64 | 2.52 | 2.15 | 16.7 | 2.11 | 3.66 |
| CCCCACUUCAAGCGAUCGGUC [Fam1B.1 aminoacylation ribozyme variant] | 1.68 | 2.02 | 1.69 | 5.13 | 4.88 | 2.53 |
| CAACUUCAAACAAUCGGCCUG [Fam1A.1 aminoacylation ribozyme variant] | 6.75 | 2.92 | 3.08 | 283 | 107 | 4.11 |
| CAACACUACAAGCAAUCGGUC [Fam1B.1 aminoacylation ribozyme variant] | 0.914 | 1.01 | 0.955 | 0.958 | 0.713 | 0.956 |
| AUUACCUUGGUUAUCGAGUGA [Fam2.1 aminoacylation ribozyme variant] | 7.92 | 4.03 | 3.66 | 44.2 | 9.73 | 8.15 |
| AUUCACCUGGGUCAUCUGGUG [Fam2.2 aminoacylation ribozyme variant] | 3.46 | 2 | 2.18 | 21 | 2.99 | 2.83 |
| CUUACCCUAGUCAUCGAGUGA [Fam2.1 aminoacylation ribozyme variant] | 5.38 | 3.24 | 2.99 | 5.25 | 6.07 | 4.55 |
| AUCCAUCUAGGUCAUCGGGUG [Fam2.2 aminoacylation ribozyme variant] | 6.36 | 3.94 | 4.35 | 29.6 | 5.63 | 7.36 |
| ACUCACCUAGGUCCUCGGGUG [Fam2.2 aminoacylation ribozyme variant] | 5.78 | 4.46 | 5.2 | 37.1 | 8.03 | 5.36 |
| AUUUUCCUGGUCAUCGAGUGA [Fam2.1 aminoacylation ribozyme variant] | 8.6 | 4.13 | 4.2 | 10.8 | 9.4 | 8.02 |
| CCACACUUCAAGCAACCAGUC [Fam1B.1 aminoacylation ribozyme variant] | 0.725 | 0.941 | 1.08 | 1.26 | 0.79 | 1.04 |
| AUUACCAUGGUCAUCGAGAGA [Fam2.1 aminoacylation ribozyme variant] | 0.937 | 0.864 | 0.797 | 0.497 | 1.38 | 0.859 |
| AUUCACCCAGGUCAUCGGGUG [Fam2.2 aminoacylation ribozyme variant] | 5.86 | 3.53 | 3.26 | 34.2 | 4.53 | 4.83 |
| CCACACUUCAAGCAAUAGUUC [Fam1B.1 aminoacylation ribozyme variant] | 0.55 | 0.644 | 0.703 | 1.21 | 0.431 | 0.501 |
